In patent publication US20240026443A1 (University of Washington, published 2024):

Target: T1, DddA (intact deaminase domain of the bacterial toxin-derived double stranded DNA cytosine deaminase) (Burkholderia cenocepacia (strain H111), UniProt P0DUH5 1290-1427, limits assumed)
T1 construct: also called double stranded DNA deaminase
T1 sequence: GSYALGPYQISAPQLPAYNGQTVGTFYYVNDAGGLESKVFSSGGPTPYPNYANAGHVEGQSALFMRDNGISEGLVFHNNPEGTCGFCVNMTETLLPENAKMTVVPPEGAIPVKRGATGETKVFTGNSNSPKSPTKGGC
Experiment: X-ray crystal structure of the complex

B1: double stranded DNA deaminase A immunity (DddAI) protein (other)
chain: MYADDFDGEIEIDEVDSLVEFLSRRPAFDANNFVLTFEESGFPQLNIFAKNDIAVVYYMDIGENFVSKGNSASGGTEKFYENKLGGEVDLSKDCVVSKEQMIEAAKQFFATKQRPEQLTWSEL
notes: Expressed inside P. aeruginosa from an arabinose-inducible promoter at the Tn7 attachment site; also called DddIA; DddA cognate immunity determinant
Does B1 bind?
Result: binds
